According to the DeepSol protein solubility set:

test: soluble on expression in E. coli; label from the status in PepcDB or PDB records

| Sequence | soluble on expression in E. coli |
| --- | --- |
| MGSDKIHHHHHHMQGVEPRERPYPQPNIQISYKKMEECPICLADDQEGEQFGCLNVCGHKFHLNCIREWHKYSINLKCPICRVESTHLEVGEGQHALSINLKMGFMIKNAIDYVGAETTNERNEDDTGEQDQEIEFLSERLRGTLVMDTIKIIQCSICGDTDVSRLSLYCQDCEAIYHETCLRGLACEVGDRNTWQECTDCRSNALLELRMGAISSQLASYDSRNSMIFAGELRDKHSVKTQQMYEQIRNAKHKIQMHVRRALDRYPLPLLRFKDAYKHVNKQVSRKLYRLSDNKYLPDQYDYDSLARTGVHTELLIYCHDE | not soluble |
| AYMYRSAFSVGLETRVTVPNVPIRFTKIFYNQQNHYDGSTGKFYCNIPGLYYFSYHITVYMKDVKVSLFKKDKAVLFTYDQYQEKNVDQASGSVLLHLEVGDQVWLQVYGDGDHNGLYADNVNDSTFTGFLLYHDTN | soluble |
| MGHHHHHHSHMSWLKEVIGTEKAVIAMCHLRALPGDPGFDTRKGMNWVIDRAHDDLMALQNGGVDAVMFSNEFSLPYLTKVRPETTAAMARIIGQLMSEIRVPFGVNVLWDPVASFDLAMATDAKFIREIFTGAYASDFGVWDTNVGETIRHQHRIGAGHVKTLFNIVPEAAVYLGNRDVCSIAKSTVFNNNPDALCVSGLTAGARTDSAILKRVKETVPDTVVLANTGVCLENVEEQLCIADGCVTATTFKKDGVFANFVDQARVAKFMEKVRHIRQ | soluble |
| MGSDKIHHHHHHMYQQVIDFIEHQKKIGALHPGDKLPSLRKLSRQFDISVPTVKQAYIELERQGQVCAKPQSGYYLQAMQARTLKPRPAKWAQCDPVEVQGRSMIEQVHAAVHLPNTVALGISNPIQAHPPDKALARLMRSVLSKVSEKAVSYGPVTGDAKLRMQLAFRYQDQGVETNPDDIVITNGAQEALSIALQCVAKRGDIIAIESPCFFGMIELIETLGMKALEVYTCTEDGVCVEDLAEAINQHDITACLFSTAINNPLGSMKTDEQRQAMVSLLEQHDIPLIEDEVYSEIYFTDNKPKPAQLYSEKGLVMTCSSFSKTAAPGYRIGWLLPGKFEEQAKRIKRAQSASTPMLQQWTLNEYLLSGDYDRHLCVLRKTLAYNCERMRALIAEHFPPEVCISKPLGGSVLWLRCQSHVKTGEFFQQALTQGVSFAPGAIFSPSGKYQNYMRVSYGVQWGEDVETAVKVLGQLVYEYTSKQKTAQLMEKQ | not soluble |
| NEKFRPEMLQGKKVIVTGASKGIGREIAYHLAKMGAHVVVTARSKEALQKVVARCLELGAASAHYIAGSMEDMTFAEEFVAEAGNLMGGLDMLILNHVLYNRLTFFHGEIDNVRKSMEVNFHSFVVLSVAAMPMLMQSQGSIAVVSSVAGKITYPLIAPYSASKFALDGFFSTLRSEFLVNKVNVSITLCILGLIDTETAIKATSGIYLGPASPKEECALEIIKGTALRQDEMYYVGSRWVPYLLGNPGRKIMEFLSAAEYNWDNVLSNEKLYGRWA | soluble |
| MGSDKIHHHHHHMTAGRIRIDEVIKDGEKIIAVSRTSPFYPDGKGGQLGDRGKIGPANVLKVKEKNGYILHYLDAHLEPGDYECEIDPARRKDIACQHTAQHILSAAFLKVADLETVSFHMGERVSTIDLNAPFVLEDVLEEAEDLANEVVRSCERVEILEIEKEEAEKMNLRKLPNVEGKVRVVKIGDFDVTACGGFHVENTGEIGLIKIVDTEKVKKVLTRIYFTAGDRALKDYREKDKLLKSLSRVLTTSTKELLKRAENLLEEVKEKSAKLDKLSEKYAEILSKVAEPEKVGKYYLYHFSGTPEEMKYLPKFLADRKDTIVLLEHPDRIEIVSNWIDCRKIFEKLKDQLNVEGGSSQKRAVITANSASRIVEKLREILKWF | not soluble |
| MICHQCPDRHDSLEEETMNAYSPPTLLQLARQKLLREEALAISALKDLPRELLPEMFEEAFTDECTKTLRAMIPMWPFPCLPVGTLIKNPNLETLKAVLEGLDILLAPKVRSSRCKLRVLNLRNEHHEFWRIWAGSHEDECLPQLTQKQPVENSPDCGVKKHLQVTTDFELTKGRLDESATYLLQWAEQRKDSIHLCCRKLQIQGLSKDAFIEIFKIIDANCVQELELSCIWEEELPFLNPYLRQMKNLLTLKLDDITEVTMDGDDLFDEKKRRKLISQLFSFYCLQNLYVDGTFAEGNMIECLRYLKKPLETLCLRYCFLSQTDLDYLPHCLNICKLKHLSLSYIYLFNLFLEPLGILLERVRDTLQTLELQLCGLTDRHFSVLLPALSQCSHLTKINFYENTISLPVLKQLSYHTANLSQLTQEQYPAPQECYDNMRGVETHRLGNICTELLDILRAKRQPERVAFATSRCIKCRGFLVYDLETQRCFFQH | not soluble |
| MGSDKIHHHHHHMGDVTVKDYKGGTIEDPEELKSNQTILTIDQAKYFNFKVDDVDKAQSNILLVDKGMGRASYAVQDVIDKFIAALVKDAKIKIGSTSKPIEITVANAYDTLVDLGVELDNKNVPRVGRFAILPPFYLGLLSKDPRFTKDFKILENGVVEGATVSGFKLMMSNNVPFSANNYSIMAGTDMAISYAGQVTEIEAYRPEKSFSDAMKGLYVFGAKVVQPDCLACLTVKQKVAEV | not soluble |
| GPGSMSYYDKSSSVGYDERDKELNEELEAMLARTPPHIQRHLQQRIHDGILQRMKEETTRKCWEFVKKYEGCVNSVQPYNIRECLPHRDALNDCAHEINCEDNYQKYRLLYLHGELLKLHEHRTGQKMEALKSRVPDSIRTWKSDYAPKYADMMSEVGAKPFTGEGENLDDE | soluble |
| MTMKEVEITAESLAKLTPAKQPNDTTTRVNSLSYGLKGDHMIMSTDDDSMFLYDMNTGLRSRSVNSKKYGCSHVKFASDSMCALHGSTKVDNTIRYLSLTDNKYIRYFQGHDKLVTGINVSPMDDMFLSVAEDKTIRLWDLKTHNCIGLMNLSATPIATFDPEGLLFAAGLDNNIIKLYDLRSFDKGPFSSFGPLENEDNVEWTAMRFSPCGKYIMICTNSSQLLLVDAFTGLIKFTLEEHQNAQKIPLMASFTPESSHIMVGSSDGYIYFYDVETGEIALKTLAPNNQTCHIAEFSPQHFVAATADTKLTLWCASDELKAQAQQS | not soluble |
| MGPYNYGWHDSDEAGKKARRGLDEDVVRYISAQKNEPEWMLEQRLKALNTFEKKPMPTWGPDLSYINFDDFKYYVRSTEKQATTWDDLPEDIKNTYDKLGIPEAEKQRLVAGVAAQYESEVVYHQIREDLETQGVIFLDTDTALKEHPELFQEYFGTVVPAGDNKFSALNSAVWSGGSFVYVPKGVHVEIPLQAYFRINTENMGQFERTLIIVDEGAYVHYVEGCTAPIYQSDSLHSAVVEIIVKKNARCRYTTIQNWSNNVLNLVTQRSKVEEGGTMEWVDGNIGSKVTMKYPAVWMVGPHAKGEVLSAAFAGEGQIQDTGAKMQHMAPYTSSNIVSKSVARSGGRAAYRGLVRVAANAHHSVSNVECDALLVDNISRSDTYPYNDIRNDHVSLGHEATVSQVSEEQLFYLQSRGIAEDEAMAMIVRGFVEPIAKELPMEYALELNRLIELQMEGSVG | not soluble |
| MSLTNQVTYLFFHGMKQISEHLFTTEEQAIIARSKAEGSYMKAPNGQATNLNKKQWAQVRTRAFREWFGDWENNPDEASKVRDANGEPLVVYHGTPISRDQAADRSKFRIADDWEIQTINAPFHTFRGGAYNGLIFTSLTEEKARSIGETRSMSIPDSEDGREQWTTDSYVYDLFVNARQPFDVKNPNAVKDILDALEGQLTAYDFYLGMEVPVSRKEAEKILEGGNSWRVVETPSMQEIIRSRGYDAIHALDEGVQYMAVFAPNQLKASGKYLYSERNTGVFSPGNNDIRFREVHHGVPASFTGYRSMKTETVRNDNIPAVLAALREKLEDTEQEWQDRILDYIAENYPTQTTVSAQTRSPEGLKEREAMKEGHHHHHH | soluble |
| MAKKKNVSVISVEKPTWFPLTDETGAFPVYGAPITIGTAVSIKPDVTTETTPDYGDSVVQDQYVAFGGAEVTLETNGYQNEVLAEITGGKKLKGGVLRSADDIASDGAFAYRRRKSNGKYRYTIFYKGKFALTSDETSTLEGSSVSYTHPEWTGSFVDVPGLGYMYSVDEDDEGVDLEMIKNWFTEVMDPRKENTTAVTGVTLDQTELNLKVGQTATLTPTITPDNASNKKYQFRSESEAIGTVTPIQGKVTAVGEGTTEIVVTTEDGNFTAKCTLNVTTAD | not soluble |
| GFIDTHVHSGHRALHKLLADGGRPDLFGQPYMDVTIARDGTRIKGYPNYLSREEAAVDPGIALHAAFTVAELLRNGVTTFVELGGHVMVQEALWRECERLGVRGYLGAGYDSGRWAADDQGRLRRVPYPDGGDHLFEEAVAFIKRVQAAGNDLVNGILVPREVENCSVDILRRTVQAAQELGVPMATHAGYNVIEFYETVREHRMTPIELLHSVGMLGPRLNIGHANLISDSPRLNYSGGRDLALMGEHRVSISHCPINIVRRARVLDSWKKYREAGVNLTIGSDTYPRDMVMNMRTASYHGKVMSHDLTAASAAEVFEAATLGGARSLGRTDI | not soluble |
| SLSFASETKKELTNLEVKDCCINAELSALIRMNGALSFTNRHLVLDVQTENAAIARRIYTLLKKQYDVSVELLVRKKMRLKKNNVYIVRFSENAKAILEDLKILGENFVFERSISKELVKKRCCKRSYMRGAFLAGGSVNNPETSSYHLEIFSLYKEHNDSLCDLLNEFQLNSKTLERKKGYITYLKEAEKITEFLNVIGAHNSLLRFEDVRIVRDMRNSVNRLVNCETANLNKTIGASLRQVENIKYIDERIGLEALPEKLREIAQLRIDYQEVTLKELGEMVASGKISKSGINHRLRKLDEIAEQLRTGQTVTLK | soluble |
| AVELAEEVTNLKQVRTMLEAIIQSSDEAISVVDENGIGLLINKAYTKMTGLSEKEVIGKPANTDISEGESMHLKVLETRRPVRGVRMKVGPNEKEVIVNVAPVIVDGILKGSVGVIHDVS | not soluble |
| MSSHENDTPLPVPYTSRLGQPLDAGQTLNVHGKINEGAQVAEINLLQGGGEIGPNTQVILHLKLNFKEKKVILNSYENGVWGKEERESLPFQAGQEFDLRIRVLDEGLEISADNKKIHEFKHRLPFQSIEYLSVRGDLSLNGIHWGGRFYKLPWETAFPAGFLEKGQRVHLYGIPKGDRWSLDLVARNQDILFHFNPRIKDKAVVRNSHRNGFWDTEEREGGFPFKKDVGFDLTIVNEEYSIQIFINRERFGTFQHRTQNPIGDYIGLRIDGEVEVTGIEFSH | soluble |
| MGSDKIHHHHHHMKKLFMSEYLNYVFQKKVWIVENIYMIKIMQLYYSSYNKKFISHTFFTDAIKNSSFPIFLNYVNNLNDKILYHSQVHGVKHILNVTFFSFLIACNENMSANDMGILLETALYHDIGRDDDMEDSDHGHRGAKKILMHISDNKMDMIIPAVIHAHSLLDEEAYQIFRQYNIEKSQYARYSKILSIIKDADALDRFRLRPNSLNPEYFRIDFSKILISLACVLSKVEWHE | not soluble |
| MGWPVISGDYIVGDPKSPVAVVTLASDYQSLNLKNYAICGTCFTENFGIEKVIVNVLSNPRISCLVVCGQESDHFAGQSLLALAENGVSAFGGSKRIIGSEGVIPYLDDIPATAISRFLREIEVIDLVGTTDPAVIQQAIDSCSGKERGEAPELSMPEINEHSWKKYEPEVKKNIMSKIKK | not soluble |
| MSLGIPKHDFYLYQSQWVSVKKKPMVHLLPHWNWENKELASKVADSEGKIPVRAYSNASSVELFLNGKSLGLKTFNKKQTSDGRTYQEGANANELYLEWKVAYQPGTLEAIARDESGKEIARDKITTAGKPAAVRLIKEDHAIAADGKDLTYIYYEIVDSQGNVVPTANNLVRFQLHGQGQLVGVDNGEQASRERYKAQADGSWIRKAFNGKGVAIVKSTEQAGKFTLTAHSDLLKSNQVTVFTGKKEGQEKTVLGTEVPKVQTIIGEAPEMPTTVPFVYSDGSRAERPVTWSSEGHHHHHH | soluble |
| SAMLSSTMKIEALLTEKHINLNLGSSSKDEVIDTLIAMVADHDKVRDLKQLAEDVRKREREMSTGIGKNIGLPHAKTSAVTEPVLALATLSNEVDFESIDNQPVKIVFLLATPETMLAEHLKLLGRITRLAGRDDVRRKLIDAATPADVLELFKQEERDLPQI | not soluble |
